Test results as given in patent publication US9617572B2, “Methods of producing 7-carbon chemicals via aromatic compounds” (INVISTA North America S.á r.l., priority 2012, dated 2017).

Columns and labels:
Assay type in all cases: biochemical
[1] = ω-Transaminase activity assay, forward direction (pimelate semialdehyde to 7-aminoheptanoate); conditions: for acceptance of pimelate semialdehyde as substrate (formation of pyruvate from L-alanine, RP-HPLC): cell free extract, 10 mM pimelate semialdehyde, 10 mM L-alanine, pH 7.5, 25° C., 4 h, against empty vector control; for reversibility of ω-transaminase activity: accepts pimelate semialdehyde and synthesizes 7-aminoheptanoate: conclusion from reverse and forward direction assays
Method: (§1) A sequence encoding an N-terminal His-tag was added to the genes from Chromobacterium violaceum, Pseudomonas syringae, Rhodobacter sphaeroides, and Vibrio Fluvialis encoding the ω-transaminases of SEQ ID NOs: 8, 10, 11 and 13, respectively (see FIGS. 7F and 7G) such that N-terminal HIS tagged ω-transaminases could be produced. Each of the resulting modified genes was cloned into a pET21a expression vector under control of the T7 promoter and each expression vector was transformed into a BL21[DE3] E. coli host. The resulting recombinant E. coli strains were cultivated at 37° C. in a 250 mL shake flask culture containing 50 mL LB media and antibiotic selection pressure, with shaking at 230 rpm. Each culture was induced overnight at 16° C. using 1 mM IPTG.
(§2) The pellet from each induced shake flask culture was harvested via centrifugation. Each pellet was resuspended and lysed via sonication. The cell debris was separated from the supernatant via centrifugation and the cell free extract was used immediately in enzyme activity assays.
Enzyme activity in the forward direction (i.e., pimelate semialdehyde to 7-aminoheptanoate) was confirmed for the transaminases of SEQ ID NO 10, SEQ ID NO 11 and SEQ ID NO 13. Enzyme activity assays were performed in a buffer composed of a final concentration of 50 mM HEPES buffer (pH=7.5), 10 mM pimelate semialdehyde, 10 mM L-alanine and 100 μM pyridoxyl 5′ phosphate. Each enzyme activity assay reaction was initiated by adding a cell free extract of the ω-transaminase gene product or the empty vector control to the assay buffer containing the pimelate semialdehyde and incubated at 25° C. for 4 h, with shaking at 250 rpm. The formation of pyruvate was quantified via RP-HPLC.

[2] = ω-Transaminase activity assay (7-aminoheptanol to 7-oxoheptanol); conditions: for acceptance of 7-aminoheptanol as substrate (formation of L-alanine, RP-HPLC): cell free extract, 10 mM 7-aminoheptanol, 10 mM pyruvate, pH 7.5, 25° C., 4 h, against empty vector control; for acceptance of 7-oxoheptanol as substrate forming 7-aminoheptanol: concluded from reversibility of the ω-transaminase activity (Example 2)
Method: A nucleotide sequence encoding an N-terminal His-tag was added to the Chromobacterium violaceum, Pseudomonas syringae and Rhodobacter sphaeroides genes encoding the ω-transaminases of SEQ ID NOs: 8, 10 and 11, respectively (see FIGS. 7F and 7G) such that N-terminal HIS tagged ω-transaminases could be produced. The modified genes were cloned into a pET21a expression vector under the T7 promoter. Each expression vector was transformed into a BL21[DE3] E. coli host. Each resulting recombinant E. coli strain were cultivated at 37° C. in a 250 mL shake flask culture containing 50 mL LB media and antibiotic selection pressure, with shaking at 230 rpm. Each culture was induced overnight at 16° C. using 1 mM IPTG.
as §2
Enzyme activity assays in the reverse direction (i.e., 7-aminoheptanol to 7-oxoheptanol) were performed in a buffer composed of a final concentration of 50 mM HEPES buffer (pH=7.5), 10 mM 7-aminoheptanol, 10 mM pyruvate, and 100 μM pyridoxyl 5′ phosphate. Each enzyme activity assay reaction was initiated by adding cell free extract of the ω-transaminase gene product or the empty vector control to the assay buffer containing the 7-aminoheptanol and then incubated at 25° C. for 4 h, with shaking at 250 rpm. The formation of L-alanine was quantified via RP-HPLC.

[3] = ω-Transaminase activity assay, reverse direction (7-aminoheptanoate to pimelate semialdehyde); conditions: cell free extract, 10 mM 7-aminoheptanoate, 10 mM pyruvate, pH 7.5, 25° C., 4 h, against empty vector control
Method: as §1, §2
Enzyme activity assays in the reverse direction (i.e., 7-aminoheptanoate to pimelate semialdehyde) were performed in a buffer composed of a final concentration of 50 mM HEPES buffer (pH =7.5), 10 mM 7-aminoheptanoate, 10 mM pyruvate and 100 μM pyridoxyl 5′ phosphate. Each enzyme activity assay reaction was initiated by adding cell free extract of the ω-transaminase gene product or the empty vector control to the assay buffer containing the 7-aminoheptanoate and incubated at 25° C. for 4 h, with shaking at 250 rpm. The formation of L-alanine from pyruvate was quantified via RP-HPLC.

[4] = Carboxylate reductase activity assay (N7-acetyl-7-aminoheptanoate to N7-acetyl-7-aminoheptanal); conditions: purified enzyme enhanced by sfp gene product, 2 mM N7-acetyl-7-aminoheptanoate, 1 mM ATP, 1 mM NADPH, pH 7.5, room temperature, 20 min, against empty vector control
Method: The activity of each of the N-terminal His-tagged carboxylate reductases of SEQ ID NOs: 3, 6, and 7 (see Example 4, and FIGS. 7B, 7E, and 7F) for converting N7-acetyl-7-aminoheptanoate to N7-acetyl-7-aminoheptanal was assayed in triplicate in a buffer composed of a final concentration of 50 mM HEPES buffer (pH=7.5), 2 mM N7-acetyl-7-aminoheptanoate, 10 mM MgCl2, 1 mM ATP, and 1 mM NADPH. The assays were initiated by adding purified carboxylate reductase and phosphopantetheine transferase or the empty vector control to the assay buffer containing the N7-acetyl-7-aminoheptanoate then incubated at room temperature for 20 min. The consumption of NADPH was monitored by absorbance at 340 nm.

Row | Molecule | acceptance of 7-aminoheptanol as substrate (formation of L-alanine, RP-HPLC) [2] | acceptance of 7-aminoheptanoate as substrate (formation of L-alanine from pyruvate, RP-HPLC) [3] | acceptance of pimelate semialdehyde as substrate (formation of pyruvate from L-alanine, RP-HPLC) [1] | reversibility of ω-transaminase activity: accepts pimelate semialdehyde and synthesizes 7-aminoheptanoate [1] | acceptance of 7-oxoheptanol as substrate forming 7-aminoheptanol [2] | acceptance of N7-acetyl-7-aminoheptanoate as substrate (consumption of NADPH, absorbance at 340 nm) [4]
1 | SEQ ID NO 3: Mycobacterium smegmatis carboxylate reductase, Genbank Accession No. ABK71854.1 (protein, listed as Mycobacterium smegmatis) MTSDVHDATDGVTETALDDEQSTRRIAELYATDPEFAAAAPLPAVVDAAHKPGLRLAEILQTLFTGYGDRPALGYRARELATDEGGRTVTRLLPRFDTLTYAQVWSRVQAVAAALRHNFAQPIYPGDAVATIGFASPDYLTLDLVCAYLGLVSVPLQHNAPVSRLAPILAEVEPRILTVSAEYLDLAVESVRDVNSVSQLVVFDHHPEVDDHRDALARAREQLAGKGIAVTTLDAIADEGAGLPAEPIYTADHDQRLAMILYTSGSTGAPKGAMYTEAMVARLWTMSFITGDPTPVINVNFMPLNHLGGRIPISTAVQNGGTSYFVPESDMSTLFEDLALVRPTELGLVPRVADMLYQHHLATVDRLVTQGADELTAEKQAGAELREQVLGGRVITGFVSTAPLAAEMRAFLDITLGAHIVDGYGLTETGAVTRDGVIVRPPVIDYKLIDVPELGYFSTDKPYPRGELLVRSQTLTPGYYKRPEVTASVFDRDGYYHTGDVMAETAPDHLVYVDRRNNVLKLAQGEFVAVANLEAVFSGAALVRQIFVYGNSERSFLLAVVVPTPEALEQYDPAALKAALADSLQRTARDAELQSYEVPADFIVETEPFSAANGLLSGVGKLLRPNLKDRYGQRLEQMYADIAATQANQLRELRRAAATQPVIDTLTQAAATILGTGSEVASDAHFTDLGGDSLSALTLSNLLSDFFGFEVPVGTIVNPATNLAQLAQHIEAQRTAGDRRPSFTTVHGADATEIRASELTLDKFIDAETLRAAPGLPKVTTEPRTVLLSGANGWLGRFLTLQWLERLAPVGGTLITIVRGRDDAAARARLTQAYDTDPELSRRFAELADRHLRVVAGDIGDPNLGLTPEIWHRLAAEVDLVVHPAALVNHVLPYRQLFGPNVVGTAEVIKLALTERIKPVTYLSTVSVAMGIPDFEEDGDIRTVSPVRPLDGGYANGYGNSKWAGEVLLREAHDLCGLPVATFRSDMILAHPRYRGQVNVPDMFTRLLLSLLITGVAPRSFYIGDGERPRAHYPGLTVDFVAEAVTTLGAQQREGYVSYDVMNPHDDGISLDVFVDWLIRAGHPIDRVDDYDDWVRRFETALTALPEKRRAQTVLPLLHAFRAPQAPLRGAPEPTEVFHAAVRTAKVGPGDIPHLDEALIDKYIRDLREFGLI | – | – | – | – | – | accepted N7-acetyl-7-aminoheptanoate as substrate
2 | SEQ ID NO 8: Chromobacterium violaceum ω-transaminase, Genbank Accession No. AAQ59697.1 (protein, listed as Chromobacterium violaceum) MQKQRTTSQWRELDAAHHLHPFTDTASLNQAGARVMTRGEGVYLWDSEGNKIIDGMAGLWCVNVGYGRKDFAEAARRQMEELPFYNTFFKTTHPAVVELSSLLAEVTPAGFDRVFYTNSGSESVDTMIRMVRRYWDVQGKPEKKTLIGRWNGYHGSTIGGASLGGMKYMHEQGDLPIPGMAHIEQPWWYKHGKDMTPDEFGVVAARWLEEKILEIGADKVAAFVGEPIQGAGGVIVPPATYWPEIERICRKYDVLLVADEVICGFGRTGEWFGHQHFGFQPDLFTAAKGLSSGYLPIGAVFVGKRVAEGLIAGGDFNHGFTYSGHPVCAAVAHANVAALRDEGIVQRVKDDIGPYMQKRWRETFSRFEHVDDVRGVGMVQAFTLVKNKAKRELFPDFGEIGTLCRDIFFRNNLIMRACGDHIVSAPPLVMTRAEVDEMLAVAERCLEEFEQTLKARGLA | accepted 7-aminoheptanol as substrate | accepted 7-aminoheptanote as substrate | – | accepted pimelate semialdehyde as substrate and synthesized 7-aminoheptanoate | accept 7-oxoheptanol as substrate and form 7-aminoheptanol | –

The next lines start with results.

Row | acceptance of 7-aminoheptanol as substrate (formation of L-alanine, RP-HPLC) [2] | acceptance of 7-aminoheptanoate as substrate (formation of L-alanine from pyruvate, RP-HPLC) [3] | Molecule | acceptance of pimelate semialdehyde as substrate (formation of pyruvate from L-alanine, RP-HPLC) [1] | reversibility of ω-transaminase activity: accepts pimelate semialdehyde and synthesizes 7-aminoheptanoate [1] | acceptance of 7-oxoheptanol as substrate forming 7-aminoheptanol [2] | acceptance of N7-acetyl-7-aminoheptanoate as substrate (consumption of NADPH, absorbance at 340 nm) [4]
3 | accepted 7-aminoheptanol as substrate | accepted 7-aminoheptanote as substrate | SEQ ID NO 11: Rhodobacter sphaeroides ω-transaminase, Genbank Accession No. ABA81135.1 | accepted pimelate semialdehyde as substrate | accepted pimelate semialdehyde as substrate and synthesized 7-aminoheptanoate | accept 7-oxoheptanol as substrate and form 7-aminoheptanol | –
4 | – | accepted 7-aminoheptanote as substrate | SEQ ID NO 13: Vibrio fluvialis ω-transaminase, Genbank Accession No. AEA39183.1 (protein, listed as Vibrio fluvialis) MNKPQSWEARAETYSLYGFTDMPSLHQRGTVVVTHGEGPYIVDVNGRRYLDANSGLWNMVAGFDHKGLIDAAKAQYERFPGYHAFFGRMSDQTVMLSEKLVEVSPFDSGRVFYTNSGSEANDTMVKMLWFLHAAEGKPQKRKILTRWNAYHGVTAVSASMTGKPYNSVFGLPLPGFVHLTCPHYWRYGEEGETEEQFVARLARELEETIQREGADTIAGFFAEPVMGAGGVIPPAKGYFQAILPILRKYDIPVISDEVICGFGRTGNTWGCVTYDFTPDAIISSKNLTAGFFPMGAVILGPELSKRLETAIEAIEEFPHGFTASGHPVGCAIALKAIDVVMNEGLAENVRRLAPRFEERLKHIAERPNIGEYRGIGFMWALEAVKDKASKTPFDGNLSVSERIANTCTDLGLICRPLGQSVVLCPPFILTEAQMDEMFDKLEKALDKVFAEVA | accepted pimelate semialdehyde as substrate | accepted pimelate semialdehyde as substrate and synthesized 7-aminoheptanoate | – | –
5 | accepted 7-aminoheptanol as substrate | accepted 7-aminoheptanote as substrate | SEQ ID NO 10: Pseudomonas syringae ω-transaminase, Genbank Accession No. AAY39893.1 (protein, listed as Pseudomonas syringae) MSANNPQTLEWQALSSEHHLAPFSDYKQLKEKGPRIITRAEGVYLWDSEGNKILDGMSGLWCVAIGYGREELADAASKQMRELPYYNLFFQTAHPPVLELAKAISDIAPEGMNHVFFTGSGSEGNDTMLRMVRHYWALKGQPNKKTIISRVNGYHGSTVAGASLGGMTYMHEQGDLPIPGVVHIPQPYWFGEGGDMTPDEFGIWAAEQLEKKILELGVENVGAFIAEPIQGAGGVIVPPDSYWPKIKEILSRYDILFAADEVICGFGRTSEWFGSDFYGLRPDMMTIAKGLTSGYVPMGGLIVRDEIVAVLNEGGDFNHGFTYSGHPVAAAVALENIRILREEKIVERVRSETAPYLQKRLRELSDHPLVGEVRGVGLLGAIELVKDKTTRERYTDKGAGMICRTFCFDNGLIMRAVGDTMIIAPPLVISFAQIDELVEKARTCLDLTLAVLQG | accepted pimelate semialdehyde as substrate | accepted pimelate semialdehyde as substrate and synthesized 7-aminoheptanoate | accept 7-oxoheptanol as substrate and form 7-aminoheptanol | –
